In patent publication US20160289316A1 (STOWERS INSTITUTE FOR MEDICAL RESEARCH, published 2016):

Target: T1, LRP6 G171V (human, UniProt O75197 32-1384, limits assumed)
T1 construct: The parent protein is printed inconsistently (LRP6 in the legend, LRP5 in the text); also called Human HBM G171V mutation; LRP5, G171V
T1 sequence (looked up): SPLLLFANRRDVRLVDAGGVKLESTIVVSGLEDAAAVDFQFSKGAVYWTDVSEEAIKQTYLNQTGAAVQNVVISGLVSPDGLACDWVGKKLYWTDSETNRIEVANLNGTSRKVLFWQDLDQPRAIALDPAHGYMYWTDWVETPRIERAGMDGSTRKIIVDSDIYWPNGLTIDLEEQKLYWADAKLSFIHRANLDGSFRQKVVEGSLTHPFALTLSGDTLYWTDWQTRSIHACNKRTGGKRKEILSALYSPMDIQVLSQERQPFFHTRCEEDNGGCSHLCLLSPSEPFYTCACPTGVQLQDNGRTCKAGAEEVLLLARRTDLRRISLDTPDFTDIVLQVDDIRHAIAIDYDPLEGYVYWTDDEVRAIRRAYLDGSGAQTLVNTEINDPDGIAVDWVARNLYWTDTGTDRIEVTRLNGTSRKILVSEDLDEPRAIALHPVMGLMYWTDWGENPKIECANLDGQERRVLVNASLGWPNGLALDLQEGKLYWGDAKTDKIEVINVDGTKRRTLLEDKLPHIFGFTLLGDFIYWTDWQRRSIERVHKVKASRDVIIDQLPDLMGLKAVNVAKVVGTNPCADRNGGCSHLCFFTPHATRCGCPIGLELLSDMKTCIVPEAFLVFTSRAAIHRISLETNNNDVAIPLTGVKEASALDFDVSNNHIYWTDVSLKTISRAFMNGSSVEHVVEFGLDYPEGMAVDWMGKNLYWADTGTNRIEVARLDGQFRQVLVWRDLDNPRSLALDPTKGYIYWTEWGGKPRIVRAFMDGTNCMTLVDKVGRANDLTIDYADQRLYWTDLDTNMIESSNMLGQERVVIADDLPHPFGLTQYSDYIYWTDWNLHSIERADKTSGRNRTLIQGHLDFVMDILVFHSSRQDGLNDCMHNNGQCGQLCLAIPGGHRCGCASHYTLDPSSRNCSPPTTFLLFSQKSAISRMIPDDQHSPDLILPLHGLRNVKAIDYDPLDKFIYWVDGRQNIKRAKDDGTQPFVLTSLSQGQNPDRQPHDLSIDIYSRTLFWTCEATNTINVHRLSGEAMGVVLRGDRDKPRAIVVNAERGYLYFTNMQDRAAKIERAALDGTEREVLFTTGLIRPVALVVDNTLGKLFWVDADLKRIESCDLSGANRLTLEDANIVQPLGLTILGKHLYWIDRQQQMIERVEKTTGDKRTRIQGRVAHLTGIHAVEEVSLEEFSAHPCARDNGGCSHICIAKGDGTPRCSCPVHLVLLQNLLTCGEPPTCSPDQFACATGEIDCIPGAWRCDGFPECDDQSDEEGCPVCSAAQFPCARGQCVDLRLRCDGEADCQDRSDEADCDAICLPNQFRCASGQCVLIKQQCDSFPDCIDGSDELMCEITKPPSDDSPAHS
Test: immunoprecipitation, anti-Flag M2 affinity gel (FIG. 2H)
Method: A […] dish of 293 cells was transfected with 10 ug of LRP5, LRP6, SOST or Wise, using Fugene 6 (Roche). pCS2+LRP5 contains the extracellular portion of the human sequence between EcoRI-Xbal. pCS2+SOST contain the whole reading frame and has been modified at the 3′ end to have a kozak sequence and Flag tag, Wise-Flag, and LRP6-IgG-FC are described in Itasaki et al. (2003). pCS2+ with an Ig-FC insert is the vector control. The supernatants were collected on day 1, day 2, and day 3. The supernatant was concentrated through an appropriate molecular weight Amicon ultra (Millipore) spin column. A protein concentration was taken on the concentrated supernatants, and 50 ug of each sample was used in each IP. Anti-Flag M2 affinity gel (Sigma) was used for the Wise and SOSTIPs.

binding result: no binding
B1: SOST-Flag (ligand, mouse, UniProt Q99P68 24-211, looked up)
chain: QGWQAFRNDATEVIPGLGEYPEPPPENNQTMNRAENGGRPPHHPYDAKDVSEYSCRELHYTRFLTDGPCRSAKPVTELVCSGQCGPARLLPNAIGRVKWWRPNGPDFRCIPDRYRAQRVQLLCPGGAAPRSRKVRLVASCKCKRLTRFHNQSELKDFGPETARPQKGRKPRPGARGAKANQAELENAY
notes: mature; This entry was not used because neither its species nor its tie to the assay construct is stated; also called pCS2+SOST; not shown: Flag tag at the 3' end of the reading frame
